Results from the supplement of paper PMC10567573.

B1: TRIM63 (parent)
chain: ANPYWTSRGSSVSMSGGRFRCPTC
B2: TOR1AIP2 (parent)
chain: YTSSQKVSPIQIDGAGRTWQDSDT

Variants of: B1
Test: protein stability index of a GFP-peptide fusion (GPS, HEK-293T) (PSI 1-6); higher = more stable
Details: c terminus: a fixed tail appended
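Also: lentivirally expressed fusions sorted by FACS into six bins by GFP to DsRed ratio, PSI derived from sequencing read proportions per bin multiplied by bin number.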

Protein stability index, by site and new letter:
G17: S 2.26, M 2.73, C 1.98, W 1.49, N 1.75, P 1.76, R 2.65, D 1.43, H 1.53
G9: A 1.7, R 2.15, W 1.43, L 1.56, P 1.76, I 1.39, M 1.39, D 1.94, K 1.98, Q 1.3, N 2.13, E 1.6, Y 2.32, F 1.92, V 1.91, H 1.31, S 1.9
S7: Y 1.54, A 2.41, W 2.62, M 2.53, L 1.6, H 1.45, P 1.27, D 2.38, V 1.93, F 2.07, Q 2.29, I 3.16, N 1.37, E 1.28, T 1.58
S11: P 2.14, D 2.08, F 2.15, H 2.68, K 1.29, A 2.3, T 2.18, V 2.21, I 3.32, L 1.1, N 2.32, E 1.76, Q 2.55, C 1.88, M 1.63, Y 1.8
S13: A 1.9, G 3.37, H 1.9, P 2.21, L 2.07, Q 2.13, C 2.02, D 2.06, K 2.39, N 2.18, R 1.52, Y 2.18, I 1.58, F 1.93, T 1.83, E 2.98, W 1.79, V 1.89
T6: C 1.58, P 1.66, I 1.84, A 2.1, Y 1.69, N 1.74, S 1.45, K 1.56, D 1.83, E 1.51, Q 3.06, M 2.24, W 1.48, G 2.44, R 2.2, H 2.12
C21: T 2.23, M 3.26, K 2.97, R 2.77, N 2.77, Y 2.15, W 1.71, G 2.86, P 2.72, F 1.76, V 1.9, I 2.67, L 2.32, E 3.46
F19: Y 2.04, N 2.24, H 2.12, G 3.02, A 2.04, I 2.34, R 2.51, S 3.07, D 2.75, M 2.79, T 2.94, Q 2.19, P 2.25, C 3.67, E 3.29
R18: F 1.46, V 1.08, P 1.65, D 2.16, I 1.37, C 1.4, G 1.44, E 2.48, M 2.49, T 2.14, N 2.24, A 1.89, Q 1.32, K 1.44

Variants of: B2
Test: as above
Details: c terminus: a fixed tail appended

Protein stability index, by site and new letter:
Y1: D 4.85, R 4.8, I 4.3, E 5.31, N 4.87, V 4.26, C 4.22, S 4.77, K 4.86, L 4.06, Q 4.64, P 4.4, A 3.7, M 5.05, T 4.68, W 3.6, F 3.02, H 5.19
T2: K 4.83, D 5.15, I 2.58, L 3.94, Q 3.17, N 4.41, H 2.14, F 4.19, C 2.46, M 3.9, E 4.74, G 3.91, A 3.8, P 3.93, R 4.72
